The results in this text go back to patent US20250282857A1, “TGF-BETA INHIBITORS AND USE THEREOF” (SCHOLAR ROCK, INC., priority 2021, published 2025).

The target of assay [1] is Matrix-associated proTGFβ1 complexes (hLTBP1-proTGFβ1 and hLTBP3-proTGFβ1). The assay is described as follows: BLI (Octet).
Assay [2] addresses Cell-associated proTGFβ1 complexes (hGARP-proTGFβ1 and hLRRC33-proTGFβ1). The assay is described as follows: BLI (Octet). On the technique in general: BLI is a label-free optical method that tracks binding on a fibre tip over time.
The target in assay [3] is Matrix-associated proTGFβ1 complexes (hLTBP1-proTGFβ1 and hLTBP3-proTGFβ1). The assay is described as follows: MSD-SET, hIgG4.
For assay [4], the target named is Cell-associated proTGFβ1 complexes (hGARP-proTGFβ1 and hLRRC33-proTGFβ1). The assay is described as follows: MSD-SET, hIgG4.
In assay [5] the test system is matrix-associated vs cell-associated proTGFβ1 complexes. The assay is described as follows: MSD-SET: fold bias, cell average over matrix average. The assay is classed as binding, human. As to conditions: ratio of average KD. The text has this:
Column (A) of the table lists monoclonal antibodies with discrete amino acid sequences. […] Columns (B), (D), (E) and (F) provide affinities of each of the listed antibodies, measured in KD. […] Average KD values of (B) and (C) are shown in the corresponding column (D), which collectively represents affinities of the antibodies to ECM- or matrix-associated proTGFβ1 complexes. Similarly, Average KD values of (E) and (F) are shown in the corresponding column (G), which collectively represents affinities of the antibodies to cell-surface or cell-associated proTGFβ1 complexes. Finally, relative ratios between the average KD values from columns (D) and (G) are expressed as “fold bias” in column (H). Thus, the greater the number of column (H) is, the greater bias exists for the particular antibody, when comparing binding preferences of the antibody for matrix-associated complexes and cell-surface complexes. This is one way of quantitatively representing and comparing inherent bias of antibodies to their target complexes. Such analyses may be useful in guiding the selection process for a candidate antibody for particular therapeutic use.
Solution equilibrium titration (“SET”) is an assay whereby binding between two molecules (such as an antigen and an antibody that binds the antigen) can be measured at equilibrium in a solution. […]

Residue numbers refer to the chain shown, from its start.

B1: Ab21 (antibody, V domains shown)
VH: EVQLVESGGGLVQPGGSLRLSCAASGFTFSSFSMDWVRQAPGKGLEWVSYISPDASTIYYADSVKGRFTISRDNAKNSLYLQMNSLRAEDTAVYYCARGVLDYGDMLDPWGQGTLVTVSS
VL: DIQMTQSPSSLSASVGDRVTITCQASQDITNYLNWYQQKPGKAPKLLIYDASNLETGVPSRFSGSGSGTDFTFTISSLQPEDIATYYCQQADNHPPWTFGGGTKVEIK
Consider B1, for which the ECM AVRG (average KD, hLTBP1 and hLTBP3 complexes) in assay [1] was found to be 0.246 nM. The molecule also had a Cell AVRG (average KD, hGARP and hLRRC33 complexes) in assay [2] of 0.644 nM.

B2: Ab28 (antibody, V domains shown)
VH: B1 VH with A97V
VL: B1 VL
For B2, the ECM AVRG (average KD, hLTBP1 and hLTBP3 complexes) in assay [1] was found to be 0.328 nM. For the same molecule, in assay [2], the Cell AVRG (average KD, hGARP and hLRRC33 complexes) was 0.603 nM.

B3: Ab22 (antibody, IgG4, V domains shown)
VH: B1 VH with S30G, D35N, S52H, P53S
VL: B1 VL
As for B3, the ECM AVRG (average KD, hLTBP1 and hLTBP3 complexes) in assay [1] worked out at 0.324 nM; in assay [3], 0.042 nM. Also, the Cell AVRG (average KD, hGARP and hLRRC33 complexes) in assay [2] was found to be 0.695 nM; in assay [4], 0.114 nM.

B4: Ab26 (antibody, IgG4, V domains shown)
VH: B1 VH with S78T
VL: B1 VL
Consider B4, for which the ECM AVRG (average KD, hLTBP1 and hLTBP3 complexes) came to 0.197 nM in assay [1] and 0.026 nM in assay [3]. The Cell AVRG (average KD, hGARP and hLRRC33 complexes) in assay [2] came out at 0.492 nM; in assay [4], 0.072 nM.

B5: Ab23 (antibody, V domains shown)
VH: B1 VH with D35N, D54S, S56D, S78T
VL: B1 VL
Regarding B5, in assay [1], the ECM AVRG (average KD, hLTBP1 and hLTBP3 complexes) worked out at 0.443 nM. The same molecule showed a Cell AVRG (average KD, hGARP and hLRRC33 complexes) in assay [2] of 0.897 nM.

B6: Ab24 (antibody, IgG4, V domains shown)
VH: B1 VH with G16R, S33A, D35Y
VL: B1 VL
With B6, the ECM AVRG (average KD, hLTBP1 and hLTBP3 complexes) worked out at 0.222 nM in assay [1] and 0.023 nM in assay [3]. Besides, the Cell AVRG (average KD, hGARP and hLRRC33 complexes) in assay [2] is 0.537 nM; in assay [4], 0.1 nM.

B7: Ab29 (antibody, IgG4, V domains shown)
VH: B1 VH with G16R, S33A, D35N, D62G, A97V, G99A
VL: B1 VL
As for B7, the ECM AVRG (average KD, hLTBP1 and hLTBP3 complexes) in assay [1] was 0.155 nM; in assay [3], 0.012 nM. For the same molecule, the Cell AVRG (average KD, hGARP and hLRRC33 complexes) in assay [2] stood at 0.304 nM; in assay [4], 0.024 nM.

B8: Ab4 (antibody, IgG4, V domains shown)
VH: B1 VH with F32Y, D35N, P53S, D54S, A55S
VL: B1 VL
As for B8, the “(H) G/D (fold bias)” value in assay [5] is reported as 0.42 fold. This molecule also returned an ECM AVRG (average KD, hLTBP1 and hLTBP3 complexes) in assay [3] of 5.05 nM. The same molecule showed a Cell AVRG (average KD, hGARP and hLRRC33 complexes) in assay [4] of 2.3 nM.

B9: Ab32 (antibody, IgG4, V domains shown)
VH: B1 VH with D35N, D54S, S56D, S78T, L101W, Y103M
VL: B1 VL
For B9, the ECM AVRG (average KD, hLTBP1 and hLTBP3 complexes) in assay [1] was determined as 0.242 nM; in assay [3] it was 0.032 nM. Also, the Cell AVRG (average KD, hGARP and hLRRC33 complexes) in assay [2] was 0.597 nM; in assay [4], 0.051 nM.

B10: Ab27 (antibody, V domains shown)
VH: B1 VH with S31F, F32Y, S33A, D35N
VL: B1 VL
In assay [1], B10 had an ECM AVRG (average KD, hLTBP1 and hLTBP3 complexes) of 0.208 nM. In addition, in assay [2], the Cell AVRG (average KD, hGARP and hLRRC33 complexes) came out at 0.361 nM.

B11: Ab33 (antibody, IgG4, V domains shown)
VH: B1 VH with D35N, D54S, S56D, S78T, R98H
VL: B1 VL
For the molecule B11, the ECM AVRG (average KD, hLTBP1 and hLTBP3 complexes) in assay [1] is 0.145 nM; in assay [3] it was 0.009 nM. Moreover, the Cell AVRG (average KD, hGARP and hLRRC33 complexes) in assay [2] turned out to be 0.302 nM; in assay [4], 0.027 nM.

B12: Ab25 (antibody, V domains shown)
VH: B1 VH with S30G
VL: B1 VL
On to B12, for which the ECM AVRG (average KD, hLTBP1 and hLTBP3 complexes) in assay [1] was determined as 0.184 nM. Besides, the Cell AVRG (average KD, hGARP and hLRRC33 complexes) in assay [2] came to 0.449 nM.

B13: Ab30 (antibody, IgG4, V domains shown)
VH: B1 VH with V100T
VL: B1 VL
Turning to B13, the values for the ECM AVRG (average KD, hLTBP1 and hLTBP3 complexes) in assay [1] and in assay [3] were 0.296 nM and 0.029 nM, respectively. Besides, the Cell AVRG (average KD, hGARP and hLRRC33 complexes) in assay [2] was 0.684 nM; in assay [4], 0.081 nM.

B14: Ab31 (antibody, IgG4, V domains shown)
VH: B1 VH with S78T, G99A
VL: B1 VL
As for B14, the ECM AVRG (average KD, hLTBP1 and hLTBP3 complexes) in assay [1] turned out to be 0.208 nM; in assay [3] it was 0.017 nM. For the same molecule, the Cell AVRG (average KD, hGARP and hLRRC33 complexes) in assay [2] turned out to be 0.495 nM; in assay [4], 0.058 nM.
